Experimental data published in patent US20240270857A1 (CHIA TAI TIANQING PHARMACEUTICAL GROUP, published 2024).
One block for each binder: values may come before it.

What was measured:
[1] = biological target: T1, cynomolgus IL-36R overexpressed on 293T-CynoIL36R-NFκB cells (cynomolgus monkey); assay: FACS on 293T-CynoIL36R-NFκB cells, ratio of MFI to background MFI
T1 construct: Entry includes the signal peptide; also called monkey IL-36R
T1 chain: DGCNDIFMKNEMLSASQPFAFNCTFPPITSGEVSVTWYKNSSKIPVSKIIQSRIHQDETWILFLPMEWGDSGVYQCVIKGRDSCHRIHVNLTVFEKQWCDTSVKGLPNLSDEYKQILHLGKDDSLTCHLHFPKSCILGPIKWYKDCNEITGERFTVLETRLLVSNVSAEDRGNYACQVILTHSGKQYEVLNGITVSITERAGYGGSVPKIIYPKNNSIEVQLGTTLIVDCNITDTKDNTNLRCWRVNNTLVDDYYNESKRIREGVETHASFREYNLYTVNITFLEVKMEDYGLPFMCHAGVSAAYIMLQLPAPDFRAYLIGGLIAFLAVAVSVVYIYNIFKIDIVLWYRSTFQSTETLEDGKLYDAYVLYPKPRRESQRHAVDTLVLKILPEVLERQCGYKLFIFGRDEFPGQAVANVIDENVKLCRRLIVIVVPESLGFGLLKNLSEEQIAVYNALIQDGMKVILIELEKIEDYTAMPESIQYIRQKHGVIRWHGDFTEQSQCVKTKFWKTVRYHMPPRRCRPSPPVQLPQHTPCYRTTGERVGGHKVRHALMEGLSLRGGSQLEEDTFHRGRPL
Procedure: After the cells was washed with PBS, the cells were resuspended with 100 μL of PBS and then the fluorescence signal was detected using a flow cytometer (BD, Accuri C6). […] The ratio was the ratio of mean fluorescence intensity (MFI) of the experimental group/the background MFI, and the resulting data were analyzed using GraphPad Prism.

[2] = biological target: T2, human IL-36R overexpressed on 293T-hIL36R-NFκB cells (human, UniProt Q9HB29 20-575); assay: cell-based or functional assay
T2 sequence: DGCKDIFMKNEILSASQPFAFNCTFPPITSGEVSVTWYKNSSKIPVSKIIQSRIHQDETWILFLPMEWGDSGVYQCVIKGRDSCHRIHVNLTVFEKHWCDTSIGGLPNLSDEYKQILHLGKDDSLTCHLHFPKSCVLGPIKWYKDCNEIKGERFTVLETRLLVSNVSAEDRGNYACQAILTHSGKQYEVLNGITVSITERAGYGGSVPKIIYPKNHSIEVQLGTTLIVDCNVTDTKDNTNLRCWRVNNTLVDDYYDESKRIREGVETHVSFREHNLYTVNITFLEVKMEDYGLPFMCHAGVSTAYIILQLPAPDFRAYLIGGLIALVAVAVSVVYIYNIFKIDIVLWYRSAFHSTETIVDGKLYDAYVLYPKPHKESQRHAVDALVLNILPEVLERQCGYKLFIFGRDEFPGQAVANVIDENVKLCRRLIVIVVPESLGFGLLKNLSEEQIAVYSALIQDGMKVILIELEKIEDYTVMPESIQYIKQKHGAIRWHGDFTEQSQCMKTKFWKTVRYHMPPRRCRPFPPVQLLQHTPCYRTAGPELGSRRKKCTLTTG

[3] = biological target: T3, IL-36R naturally expressed on OVCAR8 cells and on normal human epidermal keratinocytes (NHK cells) (human, UniProt Q9HB29 20-575); assay: cell-based or functional assay
T3 sequence (looked up): T2 sequence

[4] = biological target: T2, human IL-36R overexpressed on …; assay: cell-based or functional assay; remark: listed apart in the source
[5] = biological target: T3, IL-36R naturally expressed on OVCAR8 …; assay: cell-based or functional assay; remark: listed apart in the source
[6] = biological target: T2, human IL-36R overexpressed on …; assay: cell-based or functional assay; remark: listed apart in the source
[7] = biological target: T3, IL-36R naturally expressed on OVCAR8 …; assay: cell-based or functional assay; remark: listed apart in the source
[8] = biological target: T4, Human IL-1Rrp2/IL-1R6 protein, His Tag (ACROBiosystems, IL2-H52H6) (human, UniProt Q9HB29 20-335); assay: BLI (ForteBio Octet), antibody on ProA sensor, 1:1 model
T4 construct: Bought protein; the soluble protein is likely only the extracellular part; also called hIL-36R; human IL36R antigen; not shown: His tag
T4 sequence: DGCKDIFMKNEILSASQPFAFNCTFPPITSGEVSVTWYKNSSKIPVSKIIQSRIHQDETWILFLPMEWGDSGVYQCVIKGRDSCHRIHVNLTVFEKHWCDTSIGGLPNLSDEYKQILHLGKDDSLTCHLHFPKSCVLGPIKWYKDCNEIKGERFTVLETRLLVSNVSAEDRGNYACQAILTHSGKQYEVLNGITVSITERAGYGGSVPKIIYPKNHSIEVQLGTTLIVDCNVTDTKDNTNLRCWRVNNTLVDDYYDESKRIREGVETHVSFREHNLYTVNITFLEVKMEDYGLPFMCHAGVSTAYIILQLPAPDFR
Procedure: The affinity of anti-IL-36R antibodies to CynoIL36R-ECD mFc and human IL-1Rrp2/IL-IR6 protein, His Tag (ACROBiosystems, IL2-H52H6) was measured by a ForteBio molecular interaction instrument. […] And then the biosensor was used to bind CynoIL36R-ECD mFc or human IL-1Rrp2/IL-1R6 protein, His Tag which was diluted by a gradient (the initial concentration was 200 nM, 2-fold gradient dilution), the response signals were detected in real time using a Fortebio molecular interaction instrument (SARTORIUS, octet red 96e), and association and dissociation curves were obtained. After the completion of dissociation in each cycle, the biosensor was regenerated for the next capture; the procedure was repeated until the affinity of the different anti-IL-36R antibodies for IL-36R was determined. The resulting data were analyzed by Fortebio Data Analysis 11.0 software in a 1:1 (Langmuir) binding model to determine kₐ (kₒₙ) and kd (koff) values, and the dissociation constant KD was calculated by KD=kd/kₐ. The detection method essentially followed the manufacturer's recommendations, and more information could be found at www.fortebio.com.

[9] = biological target: T3, IL-36R naturally expressed on OVCAR8 …; assay: cell-based or functional assay; remark: listed apart in the source
[10] = biological target: T3, IL-36R naturally expressed on OVCAR8 …; assay: cell-based or functional assay; remark: listed apart in the source
[11] = biological target: T3, IL-36R naturally expressed on OVCAR8 …; assay: cell-based or functional assay; remark: listed apart in the source
[12] = biological target: T5, hIL36R-ECD hFc recombinant protein (human); assay: ELISA of hybridoma culture supernatant on hIL-36R
T5 construct: also called hIL-36R extracellular region with human antibody heavy chain Fc
T5 sequence (chain, as listed by the source limits assumed): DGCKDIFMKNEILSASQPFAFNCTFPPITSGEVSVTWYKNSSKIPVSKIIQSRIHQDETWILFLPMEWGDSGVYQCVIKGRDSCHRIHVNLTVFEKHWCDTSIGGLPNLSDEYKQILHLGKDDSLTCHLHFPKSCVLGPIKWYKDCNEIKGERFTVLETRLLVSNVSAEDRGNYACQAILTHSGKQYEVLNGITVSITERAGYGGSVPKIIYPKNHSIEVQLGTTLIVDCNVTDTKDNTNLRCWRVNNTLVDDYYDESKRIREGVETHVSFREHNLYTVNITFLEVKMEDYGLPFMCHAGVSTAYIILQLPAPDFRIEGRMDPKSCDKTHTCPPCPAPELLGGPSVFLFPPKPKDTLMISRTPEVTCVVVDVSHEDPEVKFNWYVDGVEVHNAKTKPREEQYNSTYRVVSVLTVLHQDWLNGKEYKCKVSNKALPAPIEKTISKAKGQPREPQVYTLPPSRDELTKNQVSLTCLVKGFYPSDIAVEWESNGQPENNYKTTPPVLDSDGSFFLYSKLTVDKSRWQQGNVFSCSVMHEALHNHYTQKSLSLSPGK

B2: mouse antibody 58A8D1 (hybridoma clone 58A8D1) (antibody, V domains shown)
VH: EVQLQQLGSVLVRPGISVKLSCKASGYSFTSSWMHWTKQRPGQGLEWIGEIHPNSGNTNYNEKFKGKATLTVDTSSRTAYVDLSSLTSEDSAVYYCARSPYGYGGSMDYWGQGTSVTVSS
VL: DIQMTQTTSSLSASLGDRVTISCRASQDIHNYLNWYQQKPDGTVKLLIYYTSRLYSGVPSRFSGSGSGTDYSLTISNLEQEDFATYFCQQGNTLPVMFGSGTKLELK
notes: Mouse hybridoma antibody tested as culture supernatant
- binding result [12]: binds

B4: mouse antibody 72C1 (hybridoma clone 72C1) (antibody, V domains shown)
VH: EVQLQQSGPSLVKPSQTLSLTCSVTGASITSGYWNWIRNFPGNKLEYMGYISYSGYTYYNPSLKSRISITRDTSKNQYYLQLISVTTEDTATYYCATGGYDYVEDALYYWGQGTSVTVSS
VL: EILLTQSPAIMSATLGEKVTMSCRASSNVRYMYWYQLKSGASPKLWIYLTSNLASGVPARFSGSGSGTSYSLTISSVEAEDAATYFCQQFTTSPYTFGGGTKLEIK
notes: as for B2
- binding result [12]: binds

B5: chimeric 6G10 antibody (antibody, human IgG4 S228P, kappa, V domains shown)
VH: EVMLVESGGGLVKPGGSLKLSCAASGITFSRFAMSWIRQTPEKRLEWVATISSGDMYTYYPDSVKGRFTISRDNANNTLYLQMRSLRSEDTAMYYCAIMITTGEHAYWGQGTLVTVSA
VL: EIKMTQSPSSLSASLGDTITITCRASQDISVWLTWYQQKPGNIPKLLIYKASNLHTGVPPRFSGSGSGTDFTFTISSLQPEDITTYYCLQSQSYPWTFGGGTKLEIKR
notes: Mouse variable regions on human IgG4 / kappa; also called xi6G10
- EC50 [1]: 3.49 nM
- IC50; NFκB-luciferase reporter in 293T-hIL36R-NFκB cells stimulated with hIL36γ, inhibition rate % [2]: ~40.2 nM
- IC50; IL-8 production of OVCAR8 cells stimulated with hIL36β, inhibition rate % [3]: 0.182 nM
- IC50; NFκB-luciferase reporter in 293T-hIL36R-NFκB cells stimulated with hIL36β, inhibition rate % [4]: 1.8 nM
- IC50; IL-8 production of OVCAR8 cells stimulated with hIL36γ, inhibition rate % [5]: 0.0727 nM
- IC50; NFκB-luciferase reporter in 293T-hIL36R-NFκB cells stimulated with hIL36α, inhibition rate % [6]: 2.77 nM
- IC50; IL-8 production of OVCAR8 cells stimulated with hIL36α, inhibition rate % [7]: 0.0704 nM
- Kd [8]: 0.881 nM
- koff [8]: 5.01e-05 s⁻¹
- kon [8]: 56900 M⁻¹ s⁻¹
- IC50; IL-8 production of NHK cells stimulated with hIL36β, inhibition rate % [9]: 1.27 nM
- IC50; IL-8 production of NHK cells stimulated with hIL36α, inhibition rate % [10]: 0.555 nM
- IC50; IL-8 production of NHK cells stimulated with hIL36γ, inhibition rate % [11]: 0.13 nM

B7: mouse antibody 84C4 (hybridoma clone 84C4) (antibody, V domains shown)
VH: EVQLQQLGAELVRPGASVMLSCKVSGYFFTSYWMNWVNQRPGQGLEWIGMIHPYDSETRLNQKFKGKATLTVDKSASTAYLQLSSPTSEEYAVYYCASSTTAFAYWGQGTLVTVSA
VL: DILMTQSPSSLSASLGERVSLTCRASQDIGNALNWLQQAPDGTIKRLIYATSSLDPGVPKRFSGSRSGSDYSLTISSLASEDFVYYYCLQYASSPYTFGGGTKLEIK
notes: as for B2
- binding result [12]: binds

The next lines start with the values.

- EC50 [1]: 20.8 nM
- IC50; NFκB-luciferase reporter in 293T-hIL36R-NFκB cells stimulated with hIL36γ, inhibition rate % [2]: ~40.8 nM
- IC50; IL-8 production of OVCAR8 cells stimulated with hIL36β, inhibition rate % [3]: 0.415 nM
- IC50; NFκB-luciferase reporter in 293T-hIL36R-NFκB cells stimulated with hIL36β, inhibition rate % [4]: 9.77 nM
- IC50; IL-8 production of OVCAR8 cells stimulated with hIL36γ, inhibition rate % [5]: 0.213 nM
- IC50; NFκB-luciferase reporter in 293T-hIL36R-NFκB cells stimulated with hIL36α, inhibition rate % [6]: 16.4 nM
- IC50; IL-8 production of OVCAR8 cells stimulated with hIL36α, inhibition rate % [7]: 0.253 nM
- Kd [8]: 0.254 nM
- koff [8]: 9.15e-06 s⁻¹
- kon [8]: 36000 M⁻¹ s⁻¹
- IC50; IL-8 production of NHK cells stimulated with hIL36β, inhibition rate % [9]: 0.0791 nM
- IC50; IL-8 production of NHK cells stimulated with hIL36α, inhibition rate % [10]: 0.0693 nM
- IC50; IL-8 production of NHK cells stimulated with hIL36γ, inhibition rate % [11]: 0.0136 nM
B1: chimeric 58A8D1 antibody (antibody, human IgG4 S228P, kappa, V domains shown)
VH: B2 VH
VL: DIQMTQTTSSLSASLGDRVTISCRASQDIHNYLNWYQQKPDGTVKLLIYYTSRLYSGVPSRFSGSGSGTDYSLTISNLEQEDFATYFCQQGNTLPVMFGSGTKLELKR
notes: Mouse variable regions on human IgG4 / kappa; also called xi58A8D1

- binding result [12]: binds
B3: mouse antibody 74B4D6 (hybridoma clone 74B4D6) (antibody, V domains shown)
VH: EVQLQQPGAELGKPGASVKMACKASGYTFTNYWIHWVKQRPGQGLEWIGTIDPSENYTNYNQKFKGKATLTVDTSSSTAYMQLSSLTSEDKAVYFCTGSSFSYWGQGTLVTVSA
VL: QNVLTQSPAIMSVSPGEKVTMTCSASSSVSFIHWFQQKPGTSPKLWIYTTSNLASGVPARFSGSGSGTSYSLTISRMEAEDAATYYCQQRSSYPLTFGAGTKLELK
notes: as for B2

- binding result [12]: binds
B6: mouse antibody 6G10 (hybridoma clone 6G10) (antibody, V domains shown)
VH: B5 VH
VL: EIKMTQSPSSLSASLGDTITITCRASQDISVWLTWYQQKPGNIPKLLIYKASNLHTGVPPRFSGSGSGTDFTFTISSLQPEDITTYYCLQSQSYPWTFGGGTKLEIK
notes: as for B2
